Test results from the DeepSol protein solubility set.

Assay: soluble on expression in E. coli; label from the status in PepcDB or PDB records

Sequence	soluble on expression in E. coli
MAGDPMTKQEKIQKTITFVKHILEKDASGHDWYHIERVHKMAISLSEQEGGNRFIIEMAALLHDVADEKLNESEEAGMKKVSDWLEELRVEEEESKHILHIIANMSYKGGHGGTVESLEGKIVQDADRLDALGAIGIARTFAYGGAKGRLMYDPTIPPREEMTKEEYRKNNDPSLNHFYEKLLKLKDLMNTNAAKQEAEIRHLYMEQFIEQFMKEWNAQILEHHHHHH	soluble
MGSDKIHHHHHHMKKIIYFITLLFLVGCVDLSENMYNDLGKDNYYQTEQEYDAAFMNQYAFLRTMYAWNVFYLQEITTDEACLPQKGRDGYDGGIYQRMHWHTWTDQDVIINGAWQELFKAVGFCNQVLNDLNNSRSDILPENKKKLYIAESRALRAFFYSMLVDMFGNVPIVEKVSELNPPTKTRTEVFNYVEKEIAEVKDQLLRSTDTGSYGRFTQEAALALLSRLYLNAEVYTGTSRLDDCISVSQTLLQKGYQLESTWDAPFAWNNENSKENIWVIPNDEIVANEMSVLFYRNIHWSQRSQWDWKNPNGGWNGVCTVREFIETYDITHDRRCKYDPQNGMYGQFMWGPQFDLSGNPILGTNEYAGQQLDFTLDLPDMVNNKENAGARNIKYKVKVGAQGMENDFALFRIAEINFNLAEATLRKSNEVDSKALEGINKIRTRAGVSTYATGELTLDELYREKGREMCYETLRRTDMIRFGRFIQPMWDKNYTDKETINLFPIPLQATKLNPELKQNPGYTK	not soluble
MGSDKIHHHHHHMKISGHTSVVVAEKLLSEAKFSNLTQSAVVMISQRLCLGIILTGFITNQALAAEPKQSVVPISSVLATNYNKTQIHVTPVHSLVPKLSTKRANFKQETTTQDSVYLADWVLDSGDNQQMPFAIVDKKAAKVYVFDALGQLTGAAPALLGLAVGDDSIPNIGNMALASIKPEQRTTPAGRFVVALGKNIHNKEVLWIDYDAAISLHRVVTSSPKERRLQRLESQNLLERRISYGCINVPVNFYDQVVSPAFTGTNGVVYVLPDTRSIQEVFGSYSEPPRVYRRQIYLSQAAMPDRVKLS	not soluble
LWVYPARKPRGKAIIMCPGGGFNQIASDHEGRDFAAWFNNQGITYAVLNYRMPHGDVEVIREDIREAIRLIRRQSAEWGIHQLGVMGASIGGYIAATAATLYTGTDRPDFQVLLYPVISMTDRLTHWPSRERMLGETISEGLKETLSLELHVTADTPPTFIVLAEDDQAVSPLNSIVYYTALLKHGVSAGLHIYPEGGHSFGFRDSFIYKELWTDELQKWL	not soluble
MGHHHHHHSHNSSSCPEIQGFLHVKELGKKSWKKLYVCLRRSGLYCSTKGTSKEPRHLQLLADLEDSNIFSLIAGRKQYNAPTDHGLCIKPNKVRNETKELRLLCAEDEQTRTCWMTAFRLLKYGMLLYQNYRIPQQRKALLSPFSTPVRSVSENSLVAMDFSGQTGRVIENPAEAQSAALEEGHAWRKRSTRMNILGSQSPLHPSTLSTVIHRTQ	not soluble
GPGSMEREQLISSASQPRRTVQSPARWADSSLNEIPETPPESGGAGGKLCGRMSDCIRALQVSIQPIITVVSSGNGSRRNNGGGPTVTEPLVAGRMGEREASSPGRNSFNPPRTRSGRESQPQGTISAVSGPEQHSAEKAPASPITVAGEQRMSASRPASGLASVPATGAEGLAVDHLAPGSGGVPEASTNDIIRAVENDRGMLHTTEQLSAVLERLAEYLPIRVEVELDERGPGGDTSSNCFLHHLCLQILGPVRTTPHSALLGLLEDILLEDCVPTSLRISSIHFADVSFSVEPAPGMQSTEEANNVVSFDALPIFGFTTTRVASGDVAENEKVKKECTERFCAFAKNMLECYSHTTSVRLTRCCFTPSDLGRWLKLPLLQLRRLYFEKCPLTAAHLDALIRLARATSRQSGRGPAFQRLEELQLSGSLTEESVAAVLSYFSDELLDGEFALVSLRLPSLWLRVAQSHPILERQPSLIVTST	not soluble
RRLETQKEAEANRGYGKPSLGGPFHLEDMYGNEFTEKNLLGKFSIIYFGFSNCPDICPDELDKLGLWLNTLSSKYGITLQPLFITCDPARDSPAVLKEYLSDFHPSILGLTGTFDEVKNACKKYRVYFSTPPNVKPGQDYLVDHSIFFYLMDPEGQFVDALGRNYDEKTGVDKIVEHVKSYVPAEQRAKQKEAWYSFLFK	soluble
MLRIIVIGTTGSGKTTFARALAQRLGLPHGEQDAWNHEANWQMAPLGRFRARVDTFTSQPAWVMDGNYGKARDLGWARADTLIWLDFPAWLVYSRLVRRTLWRVLTQQELWNGNRETWRGALLDPEGPLRWFWKTHWRRRQETPALAAEFPHLRLVRLRSPGEARRFLAAVGRGHPTALEHHHHHH	not soluble
MIKFSATLLATLIAASVNAATVDLRIMETTDLHSNMMDFDYYKDAATEKFGLVRTASLIEQARAEVKNSVLVDNGDVIQGSPLGDYMAAKGLKEGDVHPVYKAMNTLNYAVGNLGNHEFNYGLDFLHKALAGAKFPYVNANIIDAKTGKPMFTPYLIQDTRVVDSDGQIHTLRIGYIGFVPPQIMTWDKANLNGKVTVNDITETARKYIPEMRAKGADVVVVVAHSGLSADPYQAMAENSVYYLSQVPGVDAIMFGHAHAVFPGKDFANIKGADIAKGTLNGVPAVMPGMWGDHLGVVDLVLNNDSGKWQVTQSKAEARPIYDAVAKKSLAAEDGKLVSVLKADHDATREFVSK	not soluble
MAHTPTMLAAAAPFMPEATGVDPALDALLAGLQAHPARIDPKYLYDALGSSLFAAITQLPEYYPTRCEAEIFATHLEAIARHTGPVRTLIDLGAGDCAKAERLLPCLRPQRYVPIDISTDFLGQAVARVRRAHPWLDVLPLGRDLNAGLDLPEAIDAQGRLFFYPGSSIGNLDPDAALALLASLRAQAGVSGGLLIGVDRVKARAIVEPAYDDALHLTGAFNLNLLRHVNSVLGSDFDVRDWTHVALYNEPRSRMEMHLQARSDIRVRWPGGQRRFQADERIHTENSYKYTIERFVDLLRRAGYGDIRYWSDARDWFSVFSARA	soluble
MMKQGMANSISMTWQLLCDEHGFTREHYNQLKKFSPETLREIIAEIASCHPSTSVLLRNKWLTPPEDILEQITREYERRIQNCPPFRSEKEAESWLNELSFAVIAPLYRVAPEQTEQVESFVLQLIAEQERVWELILTNDGYSWHCALYDILFHLVLRNMEDQPEHQKQRITKIFYEPDARLVAEEIKFRIQSLYDDEQKRALSELVNDFTSKE	soluble
DEPNQPSTPEAVTKTVTIDASKYETWQYFSFSKGEVVNVTDYKNDLNWDMALHRYDVRLNCGESGKGKGGAVFSGKTEMDQATTVPTDGYTVDVLGRITVKYEMGPDGHQMEYEEQGFSEVITGKKNAQGFASGGWLEFSHGPAGPTYKLSKRVFFVRGADGNIAKVQFTDYQDAELKKGVITFTYTYPVK	soluble
NNNLTWNIYANMTWNKNKIIKLSTDEPIEYTYQIIEEGRPYRQFYMKEYAGVDRENGKPLWYLNEEGNETTSDYNAAAKRYVGDADPKVLGGFGTNLSWKGFDFNMNFTYRLGGKVFDSGASFTGFGMANRTPLKDVALNSWTEENKDAKYPQYIYGDPNKATQTSSRFLYSSNFLRISNMTLGYTVPVNLTKKIFIQKLRAYISIDNLYTFTSNDFVGYNPETYSNGVIAWQYPATRTFIGGIQLSF	not soluble
MESVESAARDYRETLAELRNNNKTQINLLTILADDFKKAAPQIVEVIERHLTTCSPSQKLLVMYVCDSILKNVKKPNDYDALFARKIVSMFEHAFRQGDERIRTSLYRIRVTWASTTLFMPSKLYELDMKINKLDPNWPISNPQTGRALRDDPQVMAPSQSRPAGNATSPAASTSTNRVFVNPKFIGSSTPGAASASKTVVEKTKSPGTVNKEKQVKKEPKQDPLDKLLPSSSASKTSSSPAGLKRKSAPSEHPNAPIRKKPQQPPKPQTAIDEDLRSISLTKKPPVPSAQDQDFRPKTLKPTSVIGSHAFAPVAAPIRPMIPVPPPVSVAPFVPAPPLSSAPPFQHPQQHHPQLPPPPVHQGMGRGYHHNSPPQDPAPIVPVQAPPPQQHLPAPENVYSSEQPKLDVPANNRIFVDGKAYEVMFVDDTAVIERGGAPHRIYFAGPPRNLVIDGIPHLLQFDTPTQIDILGSKHMVKFGAPSRELYIGGHPFKGQFGGPPIIATINGRRHEIRLTGSAPEVRIEPEPAYHLTHFLHKMREEKKIEIASEKPEKKEDWLSYLKNLRTRNILPAPARSPSSPRNQTPPPANLPIPGMNNAGQRGGYHNRHQPQQNARWGGANKQQNIPPPPSDPSPIGSGVEKRSAPPAAITDFNIRLLQIRYDSVVDALITKRADACKFCGMRLDDSQGKSKEWQDHMDWHVKQNLARHGSNNSAAVPYRQWYPSTSTWLTPRASDETNEQEADKPEEPLPGVASSGVKTKECSVCGEKFDEYYDDDEETWRLRDTVNVHGKIVHSACASDAARSLDNSSFFNDSDIKKEEPFD	not soluble
MGSDKIHHHHHHMSISPNPNIAEIAALFGETSRAAILTSLLDGRLHTASDLAYRAGITPQTASFHLGKLAEGGLVSVEKHGRHRYYQLANGEVASLLESFLVISPQPEVKSLKQSAQMVMLQKARTCYDHLAGKLGVGITDSMLDSGYLKKDGKEFVLTEAGVQFVINFGLDLESIKKKRRSLSHACLDWSERSYHLAGALGNQLMQHFFDLGWITPLPGIRAVKVTDQGKAGFKQYFNISL	not soluble
KYPFLREAGSSFKDRDVTKMSDLIATWDGQDIKGPALIGVPLSKSSISHSGASFAPGTIRQALKHSSAYSAELGEHVVSELLYDLGDIDIHVTDIVKSHHHIFQTMHALLSDHPDWVPLILGGDNSISYSTIKAIAQTKGTTAVIQFDAHHDVRNTEDGGPTNGTPFRRLLDEEIIEGQHLIQLGIREFSNSQAYEAYAKKHNVNIHTMDMIREKGLIPTIKEILPVVQDKTDFIFISVDMDVLDQSHAPGCPAIGPGGLYTDELLEAVKYIAQQPNVAGIEIVEVDPTLDFRDMTSRAAAHVLLHALK	not soluble
MPLPTELARHLTEEKIAFVQRSGLRAEVLEPGYVRLRMPGAGNENHIGSMYAGALFTLAELPGGALFLTSFDSARFYPIVKEMTLRFRRPAKGDIRVEARLDAERIRQLETEAGERGKAEYSLELQLTDEQGEVVAESAALYQLRSHARP	soluble
GPGSMHKDGPRLWDDTLVEAERIATDSKARYLQLPTPDREAEMQRTRSQFFLLLRERVRNTYLRRISKFNPGEPLTWKYISGRKKASLPSPTSMLLGDGQHTYKTARRAANALNRIFLPFHPSHKAVRFSKGINRQSASLNINASFLFGQQNNNESAATSTSGSSLPSSSESQDKNEAATTSGLVAHLHSPLDAPFNRTELLAALRNTPYGKAPGPDEVYSEALRHISSKGLRFLLRCINHSWTTGTIPVEWRRATIVPLLKPGKSPELLESYRPISLTSIVSKVAEKMVLKRLLWVWTPHPHQYAYRSMRTTTMQLAHLIHDVEHNRNHYFQVSLPKKSGIGNQLHYRPHRTLLVLVDFSKAFDSIDHRVLSRLLANIPGVNCRRWLRNFLCGRYAKTRVGHRHSDRRPMLRGVPQGSVL	not soluble
MAHHHHHHMDNSHFSKMLKECKIIGKSFTSTDADLLFSKVKAKEARKISFTEFKEKAIPEIAAKMKKTPADIEAMIANAAPKSSGTKADTVRFHDDKSTYTGAAKQGGPTNVDRNAGSLAGVVDRRQETINNRGFTA	soluble
MSLPEDYWSAKDYQRNASFVPKLTKDIVKRINLSSSDELLDLGCGDGVLTNELVSQCRRVVGIDASPDMIKAARELGLNAYVIPGEKLLDASEIPSESFDVVFSNAALHWIMRQPKNRPIVMKGVSRVLRTKGRFVAECGAFGNVSEVVGSIYSILLALGATKEQIDQANPWFFGSEDDYTRMLEEAGFHVEYVENISRPTLLNKDVREWLDTFAQHFYHAFPQWKDIIRETVYNALLVTDCRSDGKWFLQYRRLRFVAHKEEGHHHHHH	soluble
